Test [1] has as its target T1, HLA-A2 on T2 cells pulsed with NY-ESO-1:157-165, wt peptide (C165) (human).
T1 construct: also called T2 Pulsed NY-ESO-1_157-165
Kind of test: flow cytometry, peptide-pulsed T2 cells. On the technique in general: Flow cytometry measures light scatter and fluorescence of single cells or particles in a stream.

Test [2] has as its target T1, HLA-A2 on T2 cells pulsed with …. Kind of test: flow cytometry, 10 ug/ml, pulsed T2 cells.
In test [3] the target is HLA-A2 on T2 cells pulsed with BCL9L: 1351-1359 peptide (human). Kind of test: flow cytometry, 10 ug/ml, pulsed T2 cells.
Test [4] addresses HLA-A2 on T2 cells pulsed with GRID1: 7-15 peptide (human). Kind of test: flow cytometry, 10 ug/ml, pulsed T2 cells.
Test [5] addresses HLA-A2 on T2 cells pulsed with EARS2: 306-314 peptide (human). Put plainly: flow cytometry, 10 ug/ml, pulsed T2 cells.
Test [6] concerns the target HLA-A2 on T2 cells pulsed with ZDHHC1 (376-384) peptide (human). Kind of test: flow cytometry, 10 ug/ml, pulsed T2 cells.
Test [7] concerns the target HLA-A2 on T2 cells pulsed with ITCH (807-815) peptide (human). Put plainly: flow cytometry, 10 ug/ml, pulsed T2 cells.
Test [8] deals with HLA-A2 on T2 cells pulsed with MAGEH1: 90-98 peptide (human). Put plainly: flow cytometry, 10 ug/ml, pulsed T2 cells.
Test [9] deals with HLA-A2 on T2 cells pulsed with FBXL22: 4-12 peptide (human). Kind of test: flow cytometry, 10 ug/ml, pulsed T2 cells.
For test [10], the target named is HLA-A2 on T2 cells pulsed with URB1: 1853-1861 peptide (human). Kind of test: flow cytometry, 10 ug/ml, pulsed T2 cells.
For test [11], the target named is T2, monomeric HLA-A2:NY-ESO-1(156-165) (V at position 165) peptide complex, 2906.
T2 construct: also called soluble HLA-A2:NY-ESO-1 peptide complex
Kind of test: SPR, 25 C, antibody captured, monomeric complex injected.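 Also: antibody held on sensor chip via immobilized anti-human or anti-mouse Fc antibody, rate constants derived by fitting sensorgrams to a 1:1 binding model.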 Background: SPR reads the build-up and loss of mass on a sensor chip optically.

Test [12] concerns the target T2, monomeric HLA-A2:NY-ESO-1(156-165) (V …). Put plainly: SPR, 37 C, antibody captured, monomeric complex injected.

B1: mAb28037P2 (antibody, human IgG4 S228P, kappa, V domains shown)
VH: QVQLQESGPGLVKPSETLSLTCTVSGDSISVYYWTWIRQPPGKGLEWIGYVHYTGYTNYNPSLKSRVTMSVDTAKKQISLKVRSVTAADTAVYYCARTIPAAAHYYHGTDVWGPGTTVTVSS
VL: DIQMTQSPSSLSASVGDRVTITCQANQDIRKYLNWYQQKSGKAPTLLIYEASNLETGAPSTFSGSGSGTEFTFTISSLRPEDIATYYCQQYESLPLTFGGGTKVEIKR
By EC50 is commonly meant the concentration that produces a half-maximal response. As usually defined, the Kd is the equilibrium constant for the complex coming apart. Low readings indicate higher affinity, high ones lower affinity. Broadly, the koff is the rate constant with which the complex falls apart. High values mean a short-lived complex, low ones a long-lived complex. By kon is commonly meant the second-order rate constant of association. Low readings indicate slower complex formation, high ones faster complex formation. Broadly, the t½ is how long it takes for the measured level to halve. A higher t½ goes with slow loss. In turn, B1 came in with an EC50 in [1] of 0.78 nM. Moreover, the “ratio of MFI, pulsed to unpulsed” value in test [2] was 137 ratio; in test [3], 52.3 ratio; in test [4] it was 0.7 ratio; in test [5], 0.6 ratio; in [6], 0.5 ratio; in test [7] it was 1.3 ratio. The “ratio of MFI, pulsed to unpulsed” value in test [8] was determined as 0.4 ratio; in test [9], 0.5 ratio; in [10], 0.6 ratio. Also, the figures for the dissociation constant Kd in test [11] and in [12] were 0.692 nM and 2.76 nM, respectively. The figures for the koff in test [11] and in [12] were 0.000307 s⁻¹ and 0.00183 s⁻¹, respectively. Besides, the kon in test [11] came to 443000 M⁻¹ s⁻¹; in test [12] it was 664000 M⁻¹ s⁻¹. The t½ in test [11] worked out at 37.7 min; in test [12] it was 6.3 min.

B2: mAb28128P (antibody, human IgG4 S228P, kappa, V domains shown)
VH: EVQLVESGGGVVQPGGSLRLSCAASGFIFDDYAMHWVRQVPGKGLEWISLSSGGGGGTYYADPVKGRFTISRDNSKNSLHLQMNSLRAEDTASYYCAKDMVFGVVTPDFFFAMDVWGQGTTVTVSS
VL: DIQMTQSPSSLSASVGDRVTITCRASQSISTYLNWYQQKPGKAPKLLIYGASSLQRGVPSRFSGSGSGTDFTLTISSLQPEDFATYYCQQTYSTPPITFGQGTRLEIKR
In test [1], B2 displayed an EC50 of 0.32 nM. The “ratio of MFI, pulsed to unpulsed” value came out at 138 ratio in test [2]; 3 ratio in test [3]; 1.6 ratio in test [4]; 0.6 ratio in [5]; 1.6 ratio in test [6]; 1 ratio in test [7]. For the same molecule, the “ratio of MFI, pulsed to unpulsed” value in test [8] stood at 0.5 ratio; in test [9] it was 1.3 ratio; in test [10], 0.6 ratio. Moreover, the Kd in test [11] is 0.16 nM; in test [12], 0.293 nM. The koff in test [11] is 0.000185 s⁻¹; in test [12], 0.000441 s⁻¹. Moreover, the association rate constant (kon) was 1.16e+06 M⁻¹ s⁻¹ in test [11] and 1.5e+06 M⁻¹ s⁻¹ in [12]. In addition, the t½ in test [11] turned out to be 62.5 min; in test [12], 26.2 min.

B3: mAb28035P (antibody, human IgG4 S228P, kappa, V domains shown)
VH: QVQLVQSGAEVMKPGASVKVSCKVSGYTLSDLSMHWVRQAPGKGLEWMGGFDFEHGKTIYAQKFQGRVTMTEDTSTDTTYMELSSLRSEDTAVYYCAKVPNWGFFDYWGQGTLVTVSS
VL: not shown
Regarding B3, the half-maximal effective concentration (EC50) in test [1] is 2.7 nM. In addition, the “ratio of MFI, pulsed to unpulsed” value in test [2] was found to be 131 ratio; in test [3] it was 170 ratio; in test [4], 1.4 ratio; in test [5], 0.6 ratio; in test [6], 0.9 ratio; in test [7] it was 1 ratio. In addition, the entries for the “ratio of MFI, pulsed to unpulsed” value in test [8], in test [9] and in test [10] were 0.4 ratio, 0.5 ratio and 0.5 ratio, respectively. The equilibrium dissociation constant (Kd) in test [11] was determined as 0.342 nM; in test [12], 0.378 nM. Further, the figures for the off-rate constant (koff) in test [11] and in test [12] were 0.000152 s⁻¹ and 0.000253 s⁻¹, respectively. Moreover, the kon was 445000 M⁻¹ s⁻¹ in test [11] and 669000 M⁻¹ s⁻¹ in test [12]. The t½ was 75.9 min in test [11] and 45.7 min in test [12].

B4: mAb28042P (antibody, human IgG4 S228P, kappa, V domains shown)
VH: QLQLQESDPGLVKPSETLSLTCTVSGDSIRNSNYYWGWIRQPPGKGLEWIGSIYFSGRTYFNPSLKSRVTIPVDMSKNQFSLMLNSVTATDTAVYYCARHGGITAAGGFFDYWGQGTLVTVSS
VL: DIQMTQSPSSLSASVGDRVTITCQASQDISNYLNWYQQKPGKAPNVLIYDASNLETGVPSRFSGSGSGTDFTFTISSLQPEDFATYYCQQNDNLPLTFGGGTKVEIKR
In turn, B4 returned a concentration for a half-maximal effect (EC50) in [1] of 1.6 nM. Moreover, the “ratio of MFI, pulsed to unpulsed” value was 134 ratio in test [2]; 46.5 ratio in test [3]; 17.4 ratio in test [4]; 0.6 ratio in [5]; 0.5 ratio in test [6]; 0.7 ratio in test [7]. Further, the “ratio of MFI, pulsed to unpulsed” value in test [8] was found to be 0.4 ratio; in test [9] it was 0.5 ratio; in test [10] it was 0.5 ratio. Moreover, the figures for the Kd in [11] and in test [12] were 0.55 nM and 2.09 nM, respectively. The koff in [11] worked out at 0.000199 s⁻¹; in test [12] it was 0.00117 s⁻¹. The results for the kon in test [11] and in test [12] were 362000 M⁻¹ s⁻¹ and 561000 M⁻¹ s⁻¹, respectively. The t½ in test [11] was found to be 58 min; in test [12], 9.9 min.

Source of the values: patent US20220251215A1 (Regeneron, published 2022).
